# Source: patent US20190040115A1 (IMMATICS BIOTECHNOLOGIES, published 2019)
# Target: T1, HLA-A*02:01 (human)
# T1 construct: captured on streptavidin plates; also called peptide-receptive MHC molecules
# Experiment: UV peptide exchange ELISA (anti-b2m); yield grade: + >10%, ++ >20%, +++ >50, ++++ >75%
# Excerpt: Candidate peptides for T cell based therapies according to the present invention were further tested for their MHC binding capacity (affinity). The individual peptide-MHC complexes were produced by UV-ligand exchange, where a UV-sensitive peptide is cleaved upon UV-irradiation, and exchanged with the peptide of interest as analyzed. Only peptide candidates that can effectively bind and stabilize the peptide-receptive MHC molecules prevent dissociation of the MHC complexes. To determine the yield of the exchange reaction, an ELISA was performed based on the detection of the light chain (β2m) of stabilized MHC complexes. The assay was performed as generally described in Rodenko et al. (Rodenko et al., 2006).
# 96 well MAXISorp plates (NUNC) were coated over night with 2 ug/ml streptavidin in PBS at room temperature, washed 4× and blocked for 1 h at 37° C. in 2% BSA containing blocking buffer. Refolded HLA-A*02:01/MLA-001 monomers served as standards, covering the range of 15-500 ng/ml. Peptide-MHC monomers of the UV-exchange reaction were diluted 100 fold in blocking buffer. Samples were incubated for 1 h at 37° C., washed four times, incubated with 2 ug/ml HRP conjugated anti-β2m for 1 h at 37° C., washed again and detected with TMB solution that is stopped with […]. Absorption was measured at 450 nm. Candidate peptides that show a high exchange yield (preferably higher than 50%, most preferred higher than 75%) are generally preferred for a generation and production of antibodies or fragments thereof, and/or T cell receptors or fragments thereof, as they show sufficient avidity to the MHC molecules and prevent dissociation of the MHC complexes.
row,Binder,peptide exchange yield [%]
1,FAYDGKDYIA,> 75
2,TLLESIQHV,> 75
3,VISPHGIASV,> 75
4,IMEDFTTFL,> 75
5,SLIDRTIKM,50 to 75
6,GVVHGVATV,> 75
7,VVVDPIQSV,50 to 75
8,RLMANPEALKI,50 to 75
9,TLDGNPFLV,50 to 75
10,IAAGIFNDL,10 to 20
11,SVALVIHNV,> 75
12,AIHTAILTL,20 to 50
13,YSDDIPHAL,20 to 50
14,TILATVPLV,> 75
15,RMDEEFTKI,50 to 75
16,GLIDLEANYL,> 75
17,RVAFKINSV,50 to 75
18,SLPRPTPQA,50 to 75
19,HLFETISQA,50 to 75
20,ALDEPTTNL,50 to 75
21,VLFSSPPVILL,> 75
22,FLDSLIYGA,> 75
23,ILADATAKM,> 75

row,Binder,peptide exchange yield [%]
1,SLADVVDTL,> 75
2,KVSGVILSV,> 75
3,VLLGENVEL,50 to 75
4,FLGEPASYLYL,> 75
5,SLKSKVLSV,> 75
6,ALDDIIYRA,50 to 75
7,VLAVLGAVVAV,50 to 75
8,TLLEGLTEL,50 to 75
9,TLYEQEIEV,> 75
10,EVVDKINQV,10 to 20
11,KLAEALYIA,50 to 75
12,KLLAATLLL,> 75
13,ALMDTDGSGKLNL,50 to 75
14,ALEPIDITV,50 to 75
15,YLDTFALKL,> 75
16,ALDSGFNSV,> 75
17,TLKDIVQTV,50 to 75
18,LLEEINHFL,50 to 75
19,ALFFQLVDV,20 to 50
20,VLYDPVVGC,> 75
21,FLNEDISKL,50 to 75
22,GLFPSNFVTA,> 75
23,GLAGFFASV,> 75

row,Binder,peptide exchange yield [%]
1,FLDHEMVFL,> 75
2,KLKEAVEAI,20 to 50
3,SIIPPLFTV,> 75
4,GLCDSIITI,> 75
5,VQIGDIVTV,> 75
6,TLDDIMAAV,50 to 75
7,KLFPSPLQTL,> 75
8,KLFTQIFGV,> 75
9,KLIPSIIVL,50 to 75
10,TLGTATFTV,> 75
11,FLPAGIVAV,> 75
12,ILWDTLLRL,> 75
13,ALDDISESI,> 75
14,KVLGDVIEV,> 75
15,KALQFLEEV,> 75
16,YLDKMNNNI,> 75
17,VLDSVDVRL,> 75
18,LLYEDIPDKV,50 to 75
19,ALDDTVLQV,50 to 75
20,ALIEVLQPLI,> 75
21,RLDEVSREL,50 to 75
